Assay results: patent US20160289698A1 (TRUSTEES OF DARTMOUTH COLLEGE, published 2016)

Experiments:
[1] = molecular target: T1, ARR12 (133-596) (Arabidopsis, UniProt P62598 133-596); assay: BiFC with ARR fragments
T1 construct: range 133-596; Fused to a YFP fragment for BiFC; also called C-terminal domain of ARR12
T1 sequence (looked up): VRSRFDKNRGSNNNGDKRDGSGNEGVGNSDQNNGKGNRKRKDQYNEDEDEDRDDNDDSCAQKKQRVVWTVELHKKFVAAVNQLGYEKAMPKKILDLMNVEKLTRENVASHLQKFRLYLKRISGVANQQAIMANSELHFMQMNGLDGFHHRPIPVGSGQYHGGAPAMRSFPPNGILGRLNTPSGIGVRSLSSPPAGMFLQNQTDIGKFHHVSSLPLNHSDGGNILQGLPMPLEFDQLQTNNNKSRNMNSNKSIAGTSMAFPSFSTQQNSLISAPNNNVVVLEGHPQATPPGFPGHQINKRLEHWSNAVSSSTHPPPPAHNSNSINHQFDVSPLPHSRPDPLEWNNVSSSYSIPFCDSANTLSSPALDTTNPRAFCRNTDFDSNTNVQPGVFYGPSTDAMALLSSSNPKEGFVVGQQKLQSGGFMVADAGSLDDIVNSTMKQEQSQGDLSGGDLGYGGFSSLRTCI

[2] = molecular target: T2, ARR2 (Arabidopsis, UniProt Q9ZWJ9 1-664, limits assumed); assay: yeast two-hybrid (LexA-KMD bait, B42-ARR prey, X-gal)
T2 construct: also called type-B response regulator ARR2
T2 sequence (looked up): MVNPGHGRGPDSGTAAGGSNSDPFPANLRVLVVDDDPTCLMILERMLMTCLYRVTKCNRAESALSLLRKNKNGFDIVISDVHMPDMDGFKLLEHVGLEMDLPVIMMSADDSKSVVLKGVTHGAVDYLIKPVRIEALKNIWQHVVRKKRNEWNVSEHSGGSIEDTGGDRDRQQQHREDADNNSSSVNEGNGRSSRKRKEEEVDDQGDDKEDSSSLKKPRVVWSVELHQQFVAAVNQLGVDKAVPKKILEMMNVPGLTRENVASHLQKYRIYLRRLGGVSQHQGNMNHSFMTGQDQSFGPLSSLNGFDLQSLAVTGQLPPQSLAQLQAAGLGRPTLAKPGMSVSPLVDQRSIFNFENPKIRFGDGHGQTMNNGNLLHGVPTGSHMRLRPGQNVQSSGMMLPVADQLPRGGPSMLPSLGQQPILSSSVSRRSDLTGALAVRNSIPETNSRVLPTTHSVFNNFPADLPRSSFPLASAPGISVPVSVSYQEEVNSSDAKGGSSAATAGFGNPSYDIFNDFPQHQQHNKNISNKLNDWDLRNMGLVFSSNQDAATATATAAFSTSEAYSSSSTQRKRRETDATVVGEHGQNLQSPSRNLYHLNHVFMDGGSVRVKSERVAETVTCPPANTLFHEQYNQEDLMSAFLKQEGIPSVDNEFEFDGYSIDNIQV
Procedure, shortened: (§1)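 LexA DNA-binding-domain KMD bait fusions (pGilda) and B42 activation-domain type-B ARR prey fusions (pJG4-5) were co-transformed into yeast EGY48 carrying the lacZ reporter plasmid pSH18-34. Interaction was scored by colour on X-gal medium.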

[3] = molecular target: T3, ARR21 (subfamily-3) (Arabidopsis, UniProt Q9LYP5 1-613, limits assumed); assay: as above
T3 sequence (looked up): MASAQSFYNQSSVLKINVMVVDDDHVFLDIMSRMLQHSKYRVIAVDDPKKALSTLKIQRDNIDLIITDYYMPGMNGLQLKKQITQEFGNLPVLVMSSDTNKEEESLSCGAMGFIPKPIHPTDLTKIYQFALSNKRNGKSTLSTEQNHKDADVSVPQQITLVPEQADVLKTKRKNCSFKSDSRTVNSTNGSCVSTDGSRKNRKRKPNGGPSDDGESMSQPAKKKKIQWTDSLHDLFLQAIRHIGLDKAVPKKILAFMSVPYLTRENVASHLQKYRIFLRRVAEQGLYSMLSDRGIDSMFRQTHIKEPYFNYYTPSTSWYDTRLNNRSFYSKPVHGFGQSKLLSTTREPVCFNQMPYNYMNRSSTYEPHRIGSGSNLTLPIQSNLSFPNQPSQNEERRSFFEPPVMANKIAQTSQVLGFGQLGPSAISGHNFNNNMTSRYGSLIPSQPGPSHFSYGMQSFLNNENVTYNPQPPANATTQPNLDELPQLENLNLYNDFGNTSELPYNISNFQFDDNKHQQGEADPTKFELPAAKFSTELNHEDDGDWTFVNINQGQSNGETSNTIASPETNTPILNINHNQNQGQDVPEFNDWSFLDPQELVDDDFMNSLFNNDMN
Procedure, shortened: as §1

B1: KISS ME DEADLY 1 (KMD1) (other, Arabidopsis, UniProt Q9M8L2 1-354, looked up)
chain: MELIPNLPDDVARECLLRSSYQQFPVIASVCRAWNREVSLSQFLHQRKASRHSQELLILSQARVDPAGSGKIIATPEYRISVLESGSGLWTELPPIPGQTKGLPLFCRLVSVGSDLIVLGGLDPITWQAHDSVFVFSFLTSKWRVGATMPGVRRSFFGCASDSDRTVLVAGGHNEEKCALTSAMVYDVSEDKWTFLPDMARERDECKAVFHAGRFHVIGGYATEEQGQFSKTAESFDVSTWEWGPLTEDFLDDTGDTVSPPTCVAGGDLYACWGGDVMMFLNDKWQKVGQIPADVYNVTYVAVRPGMLIVIGNGKALAGYGEATVGYICDLSSSRWVKLETHGGHVQAGCFLEV
notes: Full-length protein; also called At1g80440
**Q.** Does B1 bind [1]?
**A.** Result: binds

**Q.** Does B1 bind [2]?
**A.** Result: binds

**Q.** Does B1 bind [3]?
**A.** Result: no binding

B2: KISS ME DEADLY 2 (KMD2) (other, Arabidopsis, UniProt Q9LMR5 1-359, looked up)
chain: MELIPDLPETVAYECLLRSSYKQFPLMASVCKLWQREISLSDFFRHRKASGHSQELVVLSQARVDPVKELVSGNKTIPTPVYRISVLELGTGLRSELPPVPGHSNGLPLFCRLVSVGSDLVVLCGLDPVTWRTSDSVFVFSFLTSTWRVGKSMPGGPRSFFACASDSQRNVFVAGGHDEDKNAMMSALVYDVAEDRWAFLPDMGRERDECTAIFHAGKFHVIGGYSTEEQGQFSKTAESFDVTTWRWSPQGEEFLSSEMTMWPPICAAGENGDLYACCRRDLMMMKDDTWYKVGNLPADVCNVSYVAIRRSGNLVVIGSARYGEPSVGYNWDMSNSRWLKLETHDKYEGHVQAGCFLEI
notes: Full-length protein; LexA fusion in yeast two-hybrid, YFP^N or YFP^C fusion in BiFC; also called At1g15670
**Q.** Does B2 bind [2]?
**A.** Result: binds

**Q.** Does B2 bind [3]?
**A.** Result: no binding
